In patent US6100032, “Human Smad3 and Smad4 are sequence-specific transcription activators” (Johns Hopkins University):

B1: SBE probe (26 bp) (dsDNA)
DNA 1: GGAGTATGTCTAGACTGACAATGTAC
DNA 2: GTACATTGTCAGTCTAGACATACTCC
B2: Vg probe (dsDNA)
DNA 1: TTTGTGCTTGGCTGCCGTCGCGATTCGACAACTTTGG
DNA 2: CCAAAGTTGTCGAATCGCGACGGCAGCCAAGCACAAA

Legend:
GST-Smad4/FL = GST-Smad4/FL (Homo sapiens, UniProt Q13485 Q13485:1-552); experiment: EMSA; full-length Smad4; conditions: tags: GST N-terminal (pGEX2TK, Pharmacia); label: 32P
Description: (§1) (FIG. 2B) The ^32P-labeled SBE probe was incubated with 0.6 ug of a fusion protein containing either the MH1 domain of Smad4 (lane 1) or 0.4–1.6 ug of a fusion protein containing FL Smad4 (lanes 2–5).
(§2) DNA-binding assays were performed essentially as described except that poly (dI-dC), 6 ug/ml, was used as the only competitor and 2% NP-40 was included in the reaction mix. For binding to PCR products derived from clones (e.g., FIG. 1), 1.0–0.5 ug protein […] and 50 ng of DNA end-labeled to 2×10^6 dpm/ug, was used. For binding to oligonucleotides, 0.3–0.5 ug of protein (~0.4 uM final concentration) and 0.5 ng of DNA end-labeled to 2×10^8 dpm/ug, was used. Specificity of binding was checked by competition with unlabeled SBE oligonucleotides and lack of competition with irrelevant oligonucleotides. Quantitation of binding was performed using an Instant Imager (Packard).

His6-Smad4 full length = His6-Smad4 full length (Homo sapiens, UniProt Q13485 Q13485:1-552); experiment: EMSA; full-length Smad4; conditions: tags: His6 (pET33b, Novagen); label: 32P
Description: as §1, §2

Smad4 (non-fusion) = Smad4 (non-fusion) (Homo sapiens, UniProt Q13485 Q13485:1-552); experiment: EMSA; data not shown; conditions: tags: none; rabbit reticulocyte lysate; label: 32P
GST-Smad2/MH1 [1] = target: T1, GST-Smad2/MH1 (Homo sapiens, UniProt Q15796 Q15796:1-242); experiment: EMSA; did not bind the palindrome (data not shown); exact probe not stated; conditions: tags: GST N-terminal (pGEX2TK, Pharmacia); label: 32P
GST-Smad3/MH1 = GST-Smad3/MH1 (Homo sapiens, UniProt P84022 P84022:1-200); experiment: EMSA; bound to same extent as longer selected-clone probes; poly(dI-dC), 2% NP-40; conditions: tags: GST N-terminal (pGEX2TK, Pharmacia); label: 32P
Description: as §1, §2

GST-Smad4/MH1 = GST-Smad4/MH1 (Homo sapiens, UniProt Q13485 Q13485:1-276); experiment: as above; conditions: tags: GST N-terminal (pGEX2TK, Pharmacia); label: 32P
Description: as §1, §2

GST-Smad2/MH1 [2] = target: T1, GST-Smad2/MH1; experiment: EMSA; data not shown; conditions: tags: GST N-terminal (pGEX2TK, Pharmacia); label: 32P
Description: To evaluate whether the analogous domain of human Smad proteins could bind DNA, GST fusion proteins containing the MH1 domains of Smads 2, 3, and 4 were constructed and expressed in $E. coli$. Electrophoresis mobility shift assays (EMSA) were performed using the purified proteins and labeled oligonucleotides containing the optimal sequence from Vg, essentially as described by Kim et al ). […] However, the binding was relatively inefficient, typically resulting in shifts of less than 5% of the input Vg probe. Several experimental manipulations were employed to increase the efficiency of binding (such as variations of cation, salt concentration, competitor, and other components of the binding buffer) without success.
as §2, with “Specificity of binding was checked by competition with unlabeled SBE oligonucleotides and lack of competition with irrelevant oligonucleotides.” left out

T1 sequence (Q15796 1-242, one chain of several): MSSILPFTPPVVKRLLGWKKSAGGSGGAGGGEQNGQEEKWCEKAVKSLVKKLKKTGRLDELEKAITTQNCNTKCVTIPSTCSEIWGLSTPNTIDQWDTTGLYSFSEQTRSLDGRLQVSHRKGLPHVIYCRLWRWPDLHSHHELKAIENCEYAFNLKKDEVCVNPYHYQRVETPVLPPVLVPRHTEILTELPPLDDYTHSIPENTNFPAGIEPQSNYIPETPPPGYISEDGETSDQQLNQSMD
GST-Smad4/FL, sequence (Q13485 whole entry, the tested form may be a part, one chain of several): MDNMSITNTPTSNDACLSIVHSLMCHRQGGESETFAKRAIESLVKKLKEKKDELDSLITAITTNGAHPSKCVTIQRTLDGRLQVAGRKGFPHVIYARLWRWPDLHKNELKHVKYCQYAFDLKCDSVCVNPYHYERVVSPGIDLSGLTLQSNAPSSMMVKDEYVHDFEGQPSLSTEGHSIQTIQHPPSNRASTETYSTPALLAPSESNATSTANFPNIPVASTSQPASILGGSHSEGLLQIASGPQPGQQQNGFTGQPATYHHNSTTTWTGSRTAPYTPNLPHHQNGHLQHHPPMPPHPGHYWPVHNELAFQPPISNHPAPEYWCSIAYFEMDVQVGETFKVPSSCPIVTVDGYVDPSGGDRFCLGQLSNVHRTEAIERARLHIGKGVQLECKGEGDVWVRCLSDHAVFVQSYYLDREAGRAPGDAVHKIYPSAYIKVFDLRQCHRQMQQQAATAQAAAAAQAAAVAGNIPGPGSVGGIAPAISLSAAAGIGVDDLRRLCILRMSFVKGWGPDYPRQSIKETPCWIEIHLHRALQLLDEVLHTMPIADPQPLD
Smad4 (non-fusion), sequence (Q13485 whole entry, the tested form may be a part, one chain of several): as above
His6-Smad4 full length, sequence (Q13485 whole entry, one chain of several): as the sequence (Q13485 whole entry, the tested form may be a part, one chain of several) above
GST-Smad3/MH1, sequence (P84022 1-200, one chain of several): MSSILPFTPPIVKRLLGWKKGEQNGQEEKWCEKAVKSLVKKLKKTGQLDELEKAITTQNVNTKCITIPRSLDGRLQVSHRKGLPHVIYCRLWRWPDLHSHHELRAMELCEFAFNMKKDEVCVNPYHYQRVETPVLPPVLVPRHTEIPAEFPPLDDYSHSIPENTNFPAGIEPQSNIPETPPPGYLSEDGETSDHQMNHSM
GST-Smad4/MH1, sequence (Q13485 1-276, one chain of several): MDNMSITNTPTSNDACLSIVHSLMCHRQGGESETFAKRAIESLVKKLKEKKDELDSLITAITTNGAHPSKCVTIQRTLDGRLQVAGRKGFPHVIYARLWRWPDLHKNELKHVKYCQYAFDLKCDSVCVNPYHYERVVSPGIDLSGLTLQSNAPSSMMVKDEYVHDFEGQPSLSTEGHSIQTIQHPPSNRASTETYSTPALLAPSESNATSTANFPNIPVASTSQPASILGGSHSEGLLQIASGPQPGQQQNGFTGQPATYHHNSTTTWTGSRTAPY

Binder | binding result (GST-Smad4/FL) | binding result (His6-Smad4 full length) | binding result (Smad4 (non-fusion)) | binding result (GST-Smad2/MH1 [1]) | binding result (GST-Smad3/MH1) | binding result (GST-Smad4/MH1) | binding result (GST-Smad2/MH1 [2])
B1 | binds | binds | binds | no binding | binds | binds | –
B2 | – | – | – | – | – | – | no binding
